Test results from patent US20110142840A1 (ONCOMED PHARMACEUTICALS, published 2011).
One block for each binder: values may come before it.

Experiments:
[1] = molecular target: T1, recombinant human MET SEMA domain (human, UniProt P08581 27-515); test: plate binding assay, 384-well plates coated with recombinant domains
T1 construct: domain: SEMA; also called SEMA domain of MET-ECD

[2] = molecular target: T2, recombinant human MET PSI-IPT domains (human, UniProt P08581 516-932, limits assumed); test: as above
T2 construct: domain: PSI-IPT; also called PSI-IST (as printed once)
T2 sequence (P08581 516-932 limits assumed): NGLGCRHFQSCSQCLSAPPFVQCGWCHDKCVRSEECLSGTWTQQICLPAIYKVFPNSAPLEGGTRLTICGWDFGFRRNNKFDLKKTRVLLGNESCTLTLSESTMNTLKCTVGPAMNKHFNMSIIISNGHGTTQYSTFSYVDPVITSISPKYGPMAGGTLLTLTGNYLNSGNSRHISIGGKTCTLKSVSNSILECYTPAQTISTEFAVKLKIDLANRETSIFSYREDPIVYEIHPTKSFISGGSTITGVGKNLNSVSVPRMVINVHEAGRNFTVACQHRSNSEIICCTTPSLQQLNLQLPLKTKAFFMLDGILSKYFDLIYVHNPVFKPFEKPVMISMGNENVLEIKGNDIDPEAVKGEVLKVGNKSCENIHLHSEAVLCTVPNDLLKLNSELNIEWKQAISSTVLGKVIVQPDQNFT

[3] = molecular target: T3, recombinant human MET extracellular domain (MET ECD) (human, UniProt P08581 25-932); test: BIAcore 2000; MET ECD amine-coupled on CM5 chip, antibody injected at 100-1 nM, global fit
T3 construct: extracellular domain; also called full-length MET-ECD molecule
T3 sequence (P08581 25-932): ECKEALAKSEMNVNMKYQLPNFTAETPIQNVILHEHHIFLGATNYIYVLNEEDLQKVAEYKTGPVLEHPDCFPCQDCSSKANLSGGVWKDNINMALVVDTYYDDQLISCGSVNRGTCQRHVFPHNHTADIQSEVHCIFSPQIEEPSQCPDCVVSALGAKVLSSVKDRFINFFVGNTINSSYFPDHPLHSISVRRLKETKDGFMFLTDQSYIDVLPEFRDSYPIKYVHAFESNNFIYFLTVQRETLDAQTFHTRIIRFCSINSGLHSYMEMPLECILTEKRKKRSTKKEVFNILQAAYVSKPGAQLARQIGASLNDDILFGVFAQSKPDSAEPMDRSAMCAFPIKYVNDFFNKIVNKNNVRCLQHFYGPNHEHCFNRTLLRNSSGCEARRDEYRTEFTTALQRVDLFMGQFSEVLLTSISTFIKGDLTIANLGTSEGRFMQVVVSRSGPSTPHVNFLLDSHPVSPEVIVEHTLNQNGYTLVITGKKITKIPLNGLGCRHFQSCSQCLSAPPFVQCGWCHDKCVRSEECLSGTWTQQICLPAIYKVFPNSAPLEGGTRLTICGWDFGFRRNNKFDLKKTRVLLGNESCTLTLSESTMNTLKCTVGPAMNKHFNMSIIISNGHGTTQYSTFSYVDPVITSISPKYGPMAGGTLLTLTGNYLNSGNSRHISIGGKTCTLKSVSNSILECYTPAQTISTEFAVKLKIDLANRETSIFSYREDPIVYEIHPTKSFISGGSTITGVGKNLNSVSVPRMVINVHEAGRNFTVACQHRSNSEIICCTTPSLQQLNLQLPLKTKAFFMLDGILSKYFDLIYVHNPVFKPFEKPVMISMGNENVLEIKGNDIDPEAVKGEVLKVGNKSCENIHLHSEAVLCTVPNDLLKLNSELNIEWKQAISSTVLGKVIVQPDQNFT
Method: (§1) Fab and IgG affinities were determined using a BIAcore 2000 instrument. Briefly, MET ECD was immobilized on a CM5 chip using standard amine based chemistry (NHS/EDC). For each Fab and IgG, different concentrations (100-1 nM) were injected over the MET ECD surface and kinetic data were collected over time. The data was fit using the simultaneous global fit equation to yield affinity constants (KD) for each Fab and IgG.

[4] = molecular target: T4, human MET Receptor on cells (human, UniProt P08581 25-1390); test: FACS on GTL-16 cells; AF647-R28 fixed at 360 nM, against AF647-R28 without R13
T4 construct: whole, on cells; Endogenous receptor on cell lines; also called MET-receptor on GTL-16 cells; MET on A549 lung tumor cells
T4 sequence (P08581 25-1390): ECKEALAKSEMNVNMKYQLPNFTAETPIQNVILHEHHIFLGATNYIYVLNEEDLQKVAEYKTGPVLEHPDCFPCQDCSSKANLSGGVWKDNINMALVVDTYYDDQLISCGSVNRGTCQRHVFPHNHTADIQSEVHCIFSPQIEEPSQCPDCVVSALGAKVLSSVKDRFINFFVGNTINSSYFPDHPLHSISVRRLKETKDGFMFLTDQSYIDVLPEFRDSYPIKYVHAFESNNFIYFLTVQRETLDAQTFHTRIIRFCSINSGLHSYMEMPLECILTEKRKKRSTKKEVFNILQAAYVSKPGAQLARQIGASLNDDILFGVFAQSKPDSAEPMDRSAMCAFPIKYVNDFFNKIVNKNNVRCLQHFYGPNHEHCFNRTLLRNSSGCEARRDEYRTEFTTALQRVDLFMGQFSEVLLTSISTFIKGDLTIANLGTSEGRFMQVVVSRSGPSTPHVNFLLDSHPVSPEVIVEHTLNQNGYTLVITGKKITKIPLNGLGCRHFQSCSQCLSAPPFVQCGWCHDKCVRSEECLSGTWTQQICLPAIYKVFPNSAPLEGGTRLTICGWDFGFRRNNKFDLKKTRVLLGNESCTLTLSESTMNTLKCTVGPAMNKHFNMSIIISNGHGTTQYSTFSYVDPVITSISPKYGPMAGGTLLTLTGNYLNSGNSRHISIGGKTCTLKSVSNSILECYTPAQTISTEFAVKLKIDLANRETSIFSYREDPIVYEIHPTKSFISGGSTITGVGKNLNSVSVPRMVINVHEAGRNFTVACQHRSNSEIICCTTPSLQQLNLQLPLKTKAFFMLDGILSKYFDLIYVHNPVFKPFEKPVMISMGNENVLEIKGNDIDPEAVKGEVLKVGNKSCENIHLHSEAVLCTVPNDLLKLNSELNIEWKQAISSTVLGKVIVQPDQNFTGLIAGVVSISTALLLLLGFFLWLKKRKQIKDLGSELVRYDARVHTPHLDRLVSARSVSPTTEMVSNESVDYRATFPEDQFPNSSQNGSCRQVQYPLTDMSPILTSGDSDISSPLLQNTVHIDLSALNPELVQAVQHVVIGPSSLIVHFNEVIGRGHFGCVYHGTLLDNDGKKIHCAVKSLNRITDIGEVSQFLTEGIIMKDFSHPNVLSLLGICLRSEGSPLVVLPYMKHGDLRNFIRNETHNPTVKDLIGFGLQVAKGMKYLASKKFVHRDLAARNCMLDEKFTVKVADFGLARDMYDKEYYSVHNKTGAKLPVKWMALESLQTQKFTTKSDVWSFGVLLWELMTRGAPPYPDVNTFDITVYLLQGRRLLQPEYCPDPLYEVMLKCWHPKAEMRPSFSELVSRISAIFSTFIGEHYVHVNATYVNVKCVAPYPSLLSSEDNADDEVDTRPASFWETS

[5] = molecular target: T4, human MET Receptor on cells; test: cell-based or functional assay
[6] = molecular target: T5, recombinant human MET/Fc chimeric protein (R&D Systems) (human, UniProt P08581 25-932); test: HGF/MET blocking ELISA: antibody preincubated with MET/Fc, added to HGF-coated wells; unit from the legend of FIG. 1
T5 construct: extracellular domain; Bought reagent; also called MET Receptor extracellular domain; not shown: Fc part (detected with anti-human Fc) and any linker of the bought chimera
T5 sequence (P08581 25-932, change not shown): as the sequence (P08581 25-932) above

[7] = molecular target: T5, recombinant human MET/Fc chimeric …; test: HGF/MET blocking ELISA, experiment of Example 3; unit from the legend of FIG. 3; FIG. 3A experiment, antibody alone
Method: (§2) After washing the wells once with 0.2% PBS/T, they were blocked with 5% PBS/milk for one hour. […] Washing was repeated as described above. Fifty microliters of substrate were added per well until a yellow color developed. The reaction was then stopped with 50 μL of 1 M H₂SO₄ and the absorbance at 450 nm determined with a standard plate reader.

[8] = molecular target: T5, recombinant human MET/Fc chimeric …; test: HGF/MET blocking ELISA (Dm=IC50): antibody preincubated with MET/Fc, added to HGF-coated wells; unit from the legend of FIG. 2; FIG. 2A, B experiment
Method: as §2

[9] = molecular target: T3, recombinant human MET extracellular …; test: BIAcore 2000; MET ECD amine-coupled on CM5 chip, antibody injected at 100-1 nM, global fit; Dimer, not IgG
Method: as §1

T1 sequence (P08581 27-515): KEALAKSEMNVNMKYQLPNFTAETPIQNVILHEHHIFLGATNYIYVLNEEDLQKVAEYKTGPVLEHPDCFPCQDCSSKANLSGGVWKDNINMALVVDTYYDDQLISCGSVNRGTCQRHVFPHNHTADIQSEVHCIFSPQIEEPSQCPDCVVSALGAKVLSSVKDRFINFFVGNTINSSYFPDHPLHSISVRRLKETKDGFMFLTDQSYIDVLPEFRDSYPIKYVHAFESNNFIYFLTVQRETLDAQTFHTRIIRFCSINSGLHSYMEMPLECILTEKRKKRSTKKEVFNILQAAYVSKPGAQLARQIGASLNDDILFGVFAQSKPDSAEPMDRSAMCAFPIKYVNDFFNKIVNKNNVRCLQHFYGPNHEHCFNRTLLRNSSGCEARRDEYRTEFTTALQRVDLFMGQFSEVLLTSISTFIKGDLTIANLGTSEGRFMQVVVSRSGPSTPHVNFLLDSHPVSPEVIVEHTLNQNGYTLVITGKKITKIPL

B3: 19-MET (divalent dimer of two 28-MET Fabs linked via a helix-loop-helix motif) (other)
VH: QVQLQESGPGLVKPGETLSLTCTVSGGSISGYYWSWIRQAPGKGLEWIGEIYYAGSTLYNPSLKGRVTISVDTSKNQFSLKLSSVTAEDTAVYYCARHYGLDWFGDTGMDVWGQGTLVTVSS
VL: DIELTQPPSVSVAPGQSITISCSGDNLGDKYVHWYQQKPGQAPVLVIYDDNERPSGIPERFSGSNSGNTATLTISGTQAEDEADYYCSAYGSHSGTVFGGGTKLTVLG
notes: also called 19d; dimeric Fab-dHLX of Fab 28
IC50 [7]: 106 nM
Kd [3]: 8.7 nM
IC50 [8]: 44.3 nM

B5: 13-MET monovalent Fab (Fab, V domains shown)
VH: QVQLKESGPALVKPTQTLTLTCTFSGFSLSTSGMVVSWIRQPPGKALEWLAFISWDDDKYYSTSLKTRLTISKDTSKNQVVLTMTNMDPVDTATYYCAREPGRYGGYYFDYWGQGTLVTVSS
VL: DIQMTQSPSSLSASVGDRVTITCRASQTISHYLAWYQQKPGKAPKLLIYAASILQSGVPSRFSGSGSGTDFTLTISSLQPEDFAVYYCQQYSGFPVTFGQGTKVEIKR
notes: Monovalent human Fab from the Morphosys HuCAL GOLD Fab library; the Fab constant parts are not; also called Fab-13; R13
IC50 [6]: 12.4 nM

B6: 9-MET (divalent dimer of two 13-MET Fabs linked via a helix-loop-helix motif) (other)
VH: B5 VH
VL: DIQMTQSPSSLSASVGDRVTITCRASQTISHYLAWYQQKPGKAPKLLIYAASILQSGVPSRFSGSGSGTDFTLTISSLQPEDFAVYYCQQYSGFPVTFGQGTKVEIKRT
notes: also called 9d; dimeric Fab-dHLX of Fab 13
IC50 [7]: 8.88 nM
Kd [9]: 0.56 nM
IC50 [8]: 5.08 nM

More lines, main results first:

binding result [1]: no binding
binding result [2]: no binding
Kd [3]: 47.9 nM
fold increase of ΔMFI with 20 nM unlabeled R13 [4]: 2.6 fold
B1: 28-MET human IgG1 antibody (antibody, V domains shown)
VH: B3 VH
VL: B3 VL
notes: Fab variable regions combined with human constant regions to give a full human IgG1; ATCC deposit PTA-9149; also called 28-MET IgG; MET-28 IgG
EC50 of antibody-dependent cellular cytotoxicity (ADCC) on GTL-16 cells [5]: 3770 nM

Kd [3]: 49 nM
IC50 [6]: 36.1 nM
B2: 28-MET monovalent Fab (Fab, V domains shown)
VH: B3 VH
VL: B3 VL
notes: Monovalent human Fab from the Morphosys HuCAL GOLD Fab library; the Fab constant parts are not; also called Fab-28; R28

binding result [2]: no binding
Kd [3]: 0.9 nM
B4: 13-MET human IgG1 antibody (antibody, V domains shown)
VH: B5 VH
VL: B5 VL
notes: Fab variable regions combined with human constant regions to give a full human IgG1; ATCC deposit PTA-9148; also called 13-MET IgG; MET-13 IgG
EC50 of antibody-dependent cellular cytotoxicity (ADCC) on GTL-16 cells [5]: 479 nM
